In patent US20040038861A1, “Methods and compositions for normalizing lipid levels in mammalian tissues” (priority 2001, published 2004):

What was measured:
[1] = molecular target: high affinity CGRP receptor
[2] = molecular target: metabolic amylin receptor
[3] = molecular target: high affinity CGRP receptor; remark: listed apart in the source
[4] = molecular target: high affinity CGRP receptor; remark: listed apart in the source
[5] = molecular target: metabolic amylin receptor; remark: listed apart in the source
[6] = molecular target: metabolic amylin receptor; remark: listed apart in the source
soleus muscle [7] = experiment: Glucose transport (2-deoxy-D-glucose uptake) in incubated soleus muscle strips; assay type: cell-based, rat; conditions: antagonist 1 μM and 10 μM; without antagonist 19.5±3.6
Description: (§1) Soleus muscle preparation. All experiments were performed according to protocols approved by the Institutional Animal Ethics Committee. 5-6 week-old male Wistar rats (160 g) were kept on a 12:12-h light/dark cycle, and fed and watered ad libitum. Animals were anaesthetised with 50 mg/kg Nembutal (pentobarbitone sodium), then sacrificed by cervical dislocation. Soleus muscles were dissected under oxygenated KHB (118 mM NaCl, 4.75 mM KCl, 1.2 mM MgSO4, 24.8 mM NaHCO3, 1.2 mM KH2PO4, 2.54 mM CaCl2, 10 mM glucose, pH 7.4) and teased into halves, then incubated as described below.
Determination of rates of glucose transport in incubated soleus muscle strips. 4-5 muscle strips were added to each flask, which contained 10 ml DMEM. They were pre-incubated with hormones as indicated for 30 min at 30° C. in a shaking water bath, after which 5 μl of 2[^3H]DOG (0.5 μCi/ml) and 5 μl D[^14C(U)]sorbitol (0.05 μCi/ml) were added, then incubated for another 30 min; RIA grade BSA was added to 0.9% (w/v) to prevent non-specific binding of insulin to flasks. Following incubation, muscle strips were transferred to ice-cold KHB for 5-10 min to remove excess [^3H]DOG and [^14C]sorbitol. They were then blotted, frozen, tendons excised, then lyophilized for a further 48 h. Muscles were then weighed, transferred to scintillation vials and digested with 0.5 ml 1 M NaOH at 60° C. for 1 h. Scintillation fluid (4 ml) was added to each vial, and samples counted in a Beckman liquid scintillation spectrometer, preset to count ^14C and ^3H channels simultaneously. The amount of each isotope present in the samples was determined and used to calculate the extracellular space and the intracellular concentration of [^3H]DOG. The accumulation of intracellular [^3H]DOG, a measure of muscle glucose uptake, was calculated by subtracting the concentration of [^3H]DOG in the extracellular space from the corresponding total muscle [^3H]DOG]; extracellular [^3H]DOG was quantified by measuring the muscle concentration of [^14C]sorbitol.
(§2) Data analysis. One way ANOVA, Dunnett's Multiple Comparisons Test, and unpaired Student's t-tests were used to calculate the statistical significance of differences, as appropriate. Dose-response curves were fitted to a sigmoidal dose-response algorithm, as follows: Y=minimum+(maximum−minimum)/([…] log ^(EC50^−X), for 2-DOG-uptake; and by a four parameter logistic model, Y=minimum+(maximum−minimum)/(1+10 log ^(EC50^−X)Hill-Coefficient) for total glycogen and [^14C]glucose incorporation. Calculations were performed using Prism v2.0 (GraphPad Software, San Diego, Calif.) to derive values for half-maximal effective concentration (EC50). Displacement curves derived for competition of bound radioligand with cold ligand in transfected cells were calculated according to a one site competition fit using Prism v2.0.

ramp 1/C1ins− receptor = molecular target: T1, ramp 1/C1ins− receptor (Mus musculus, UniProt Q60755+Q9WTJ5); experiment: cAMP production in L6 myoblasts co-transfected with ramp 1 and C1ins−; assay type: cell-based, murine; conditions: 5 μM antagonist; agonist 10 pM to 100 nM
T1 construct: expressed in transfected cells; host or cells: L6 myoblasts (ATCC), transient co-transfection of pcDNA3.1 plasmids
T1 sequence (Q60755 42-496 isoform Q60755-2 limits assumed): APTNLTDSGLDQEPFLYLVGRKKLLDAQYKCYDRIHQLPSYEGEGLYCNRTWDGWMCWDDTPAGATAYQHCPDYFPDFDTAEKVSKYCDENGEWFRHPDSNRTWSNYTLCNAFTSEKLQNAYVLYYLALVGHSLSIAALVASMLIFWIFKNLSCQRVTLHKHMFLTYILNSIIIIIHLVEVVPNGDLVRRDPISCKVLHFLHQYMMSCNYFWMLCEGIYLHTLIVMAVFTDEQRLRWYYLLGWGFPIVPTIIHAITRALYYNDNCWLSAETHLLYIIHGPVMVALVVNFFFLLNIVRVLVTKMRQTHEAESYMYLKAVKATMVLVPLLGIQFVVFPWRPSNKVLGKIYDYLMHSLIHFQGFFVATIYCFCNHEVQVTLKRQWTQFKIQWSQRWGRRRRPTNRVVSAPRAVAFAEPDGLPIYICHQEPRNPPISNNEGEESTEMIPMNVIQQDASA
T1 sequence (Q9WTJ5 27-148 partner): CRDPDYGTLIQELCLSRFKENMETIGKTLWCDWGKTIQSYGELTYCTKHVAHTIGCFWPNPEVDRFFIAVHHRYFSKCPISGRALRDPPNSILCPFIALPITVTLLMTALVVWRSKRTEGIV
Description: Transfection of L6 myoblasts and cos-7 cells, and analysis of radioligand binding. L6 myoblasts and cos-7 cells were obtained from ATCC. Both cell lines were cultered in Dulbecco's modified Eagle's medium (DMEM; Gibco/BRL, high glucose) supplemented with 10% fetal calf serum (Gibco/BRL, Gaithersburg, Md.), L-glutamine (2 mM), penicillin (100 U/ml; Sigma), streptomycin ([…]; Sigma), saline (0.85%), under 5% CO2/95% air at 37° C. The day before transfection, cells were trypsinised and seeded into six-well plates at a density of 2.9×10^5 cells/well in the same medium. For transfection, cells were incubated with a mixture comprising 1 μg each of Qiagen-purified (Qiagen, Valencia, Calif.) plasmids containing C1ins− with either ramp 1 or ramp 3, and Fugene reagent (6 μl; Boehringer Mannheim) in Opti-Mem I medium (Gibco/BRL). The complex was added with serum to cells, which were incubated for a further 48 h.
Determination of cAMP in cultured cells and soleus muscle strips. cAMP concentration was measured in cells seeded in six-well plates and transfected as described. Following aspiration, cells were incubated for 15 min at room temperature in the presence of stated concentrations of ligands in binding buffer. Isobutylmethylxanthine (Sigma) was added to a final concentration of 0.5 mM together with stated concentrations of peptides, and the reaction terminated by aspiration. Cells were washed with 0.5 ml ice-cold TE buffer (10 mM Tris/HCl, 1 mM EDTA, pH 7.6) and rapidly transferred to eppendorf tubes in 1 ml of the same buffer, then boiled for 5 min. Following centrifugation at 12,000 g for 5 min at 4° C., then cooling on ice, duplicate 50 μl aliquots were analyzed for cAMP using an assay system based on competitive binding (Arnersham Pharmacia) according to the manufacturer's instructions.

soleus muscle [8] = experiment: Lipid metabolites (free fatty acid, glycerol, triglyceride; enzymatic analysis) in isolated soleus muscle from normally fed rats; assay type: cell-based, rat; conditions: 1 h
soleus muscle [9] = experiment: cAMP content of isolated soleus muscle from normal fed rats; assay type: cell-based, rat; conditions: normal fed; 10-fold molar excess of antagonist; CGRP alone 6.9±0.8
Description: as §1
(§3) For the measurement of cAMP in muscle, isolated soleus strips were incubated with stated concentrations of peptides, then lyophilized and deproteinized. Each strip was placed in 400 μl of 0.5 M HClO4 with 5 mM EDTA (phosphodiesterase inhibitor) and sonicated three times in 20 s bursts. Tubes were heated for 3-5 min in boiling water to coagulate protein, then centrifuged (12,000 g, 4° C., 2 min). Supernatant (300 μl) was taken and the pH adjusted to 7.0 with 75 μl of 2 M NH4OH. The samples were refrigerated (4° C., 2 h) to precipitate proteins, then centrifuged under the same conditions as above and 50 μl taken for cAMP measurement.

soleus muscle [10] = experiment: cAMP content of isolated soleus muscle from high fat-fed rats; assay type: cell-based, rat
Description: as §1, §3

[11] = molecular target: T2, murine ramp 1/C1ins− receptor (Mus musculus, UniProt Q60755+Q9WTJ5); experiment: Radioligand binding and displacement of [3H]amylin in L6 myoblasts co-transfected with murine ramp 1 and C1ins−; conditions: 10 nM radioligand, FIG. 8D
T2 construct: expressed in transfected cells; host or cells: L6 myoblasts (ATCC), transient co-transfection of pcDNA3.1 plasmids
T2 sequence (Q60755 42-496 isoform Q60755-2 limits assumed): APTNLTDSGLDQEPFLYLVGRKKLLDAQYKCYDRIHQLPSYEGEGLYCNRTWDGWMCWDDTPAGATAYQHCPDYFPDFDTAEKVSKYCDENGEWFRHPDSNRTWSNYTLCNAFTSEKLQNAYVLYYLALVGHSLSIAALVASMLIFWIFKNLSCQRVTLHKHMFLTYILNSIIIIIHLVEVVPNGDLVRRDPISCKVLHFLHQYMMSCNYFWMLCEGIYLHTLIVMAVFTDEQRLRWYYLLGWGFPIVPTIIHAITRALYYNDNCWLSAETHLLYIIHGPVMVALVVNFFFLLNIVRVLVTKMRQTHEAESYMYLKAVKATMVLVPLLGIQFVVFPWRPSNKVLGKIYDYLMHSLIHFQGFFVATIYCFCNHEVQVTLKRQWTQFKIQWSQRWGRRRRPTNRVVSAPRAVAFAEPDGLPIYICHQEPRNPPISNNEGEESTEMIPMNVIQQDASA
T2 sequence (Q9WTJ5 27-148 partner): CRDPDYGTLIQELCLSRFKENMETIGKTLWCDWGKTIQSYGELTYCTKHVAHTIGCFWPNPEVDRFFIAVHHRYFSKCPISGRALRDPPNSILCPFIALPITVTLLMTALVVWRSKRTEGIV
Description: Transfection of L6 myoblasts and cos-7 cells, and analysis of radioligand binding. L6 myoblasts and cos-7 cells were obtained from ATCC. Both cell lines were cultered in Dulbecco's modified Eagle's medium (DMEM; Gibco/BRL, high glucose) supplemented with 10% fetal calf serum (Gibco/BRL, Gaithersburg, Md.), L-glutamine (2 mM), penicillin (100 U/ml; Sigma), streptomycin (100 mg/ml; Sigma), saline (0.85%), under 5% CO2/95% air at 37° C. The day before transfection, cells were trypsinised and seeded into six-well plates at a density of 2.9×10^5 cells/well in the same medium. For transfection, cells were incubated with a mixture comprising 1 μg each of Qiagen-purified (Qiagen, Valencia, Calif.) plasmids containing C1ins− with either ramp 1 or ramp 3, and Fugene reagent (6 μl; Boehringer Mannheim) in Opti-Mem I medium (Gibco/BRL). The complex was added with serum to cells, which were incubated for a further 48 h.
For binding experiments, radioligand (either alone or together with stated final concentrations of non-radiolabeled ligands) was dissolved in DMEM containing 0.1% BSA (binding buffer) for 1 h before binding experiments were performed. […] Cells were washed twice with this buffer, then incubated with 1 ml of the same plus radioligand for 4 h at room temperature (21° C.).

soleus muscle [12] = experiment: Total glycogen content in isolated incubated soleus muscle; assay type: cell-based, rat; conditions: isolated rat soleus muscle
Description: as §1
Total glycogen content was measured in muscle strips by lyophilization followed by hydrolysis of glycogen to D-glucose with amyloglucosidase (Sigma) 20 U/100 ml in 0.2 M sodium acetate/acetic acid buffer, pH 4.8, and expressed as μmol ‘glucosyl’ units/g dry muscle weight. Free glucose in supernatant solutions was measured with a glucose/lactate analyzer (YSI 2300STAT, Yellow Springs Corporation) using D-glucose oxidase immobilized enzyme chemistry.
as §2

soleus muscle [13] = experiment: Incorporation of D[14C(U)]glucose into glycogen in isolated incubated soleus muscle; assay type: cell-based, rat; conditions: isolated rat soleus muscle
Description: as §1
Measurement of glycogen metabolism in isolated, incubated soleus muscle. […]. Glycogen was precipitated overnight at −20° C. with 96% ethanol (1.2 ml), followed by centrifugation at 8,000 g (15 min, 4° C.). Pellets were washed twice with the same amount of ethanol then dissolved in water (0.6 ml). Aliquots (0.3 ml) were analyzed for D[^14C(U)] glucose content by liquid scintillation spectrometry.
as §2

[14] = molecular target: T3, murine ramp 1/C1ins- receptor (murine, UniProt Q60755); experiment: displacement of 20 nM [^3H]amylin, co-transfected L6 myoblasts
T3 sequence 1: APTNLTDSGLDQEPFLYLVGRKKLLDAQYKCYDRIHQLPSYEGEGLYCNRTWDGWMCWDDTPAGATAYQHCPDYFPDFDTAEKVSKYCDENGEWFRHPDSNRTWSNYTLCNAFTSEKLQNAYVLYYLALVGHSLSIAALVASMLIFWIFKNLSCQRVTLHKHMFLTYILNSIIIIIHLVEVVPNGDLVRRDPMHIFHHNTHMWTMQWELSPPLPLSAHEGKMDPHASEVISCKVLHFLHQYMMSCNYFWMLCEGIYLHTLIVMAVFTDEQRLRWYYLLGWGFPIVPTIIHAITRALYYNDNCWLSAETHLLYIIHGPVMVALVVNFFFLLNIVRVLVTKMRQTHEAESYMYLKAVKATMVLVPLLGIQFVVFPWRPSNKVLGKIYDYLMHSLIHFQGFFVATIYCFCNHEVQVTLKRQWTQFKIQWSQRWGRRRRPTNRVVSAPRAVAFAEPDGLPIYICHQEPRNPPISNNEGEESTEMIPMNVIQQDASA
T3 sequence 2: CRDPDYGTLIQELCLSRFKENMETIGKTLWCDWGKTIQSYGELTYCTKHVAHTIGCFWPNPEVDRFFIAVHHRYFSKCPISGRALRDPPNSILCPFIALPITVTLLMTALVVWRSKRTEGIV
Text: (§4) Cells were then washed and bound radioactivity determined by liquid scintillation counting. […] Each point represents the mean±SEM of three independent myoblast transfections from an experiment repeated at least twice.

[15] = molecular target: T3, murine ramp 1/C1ins- receptor; experiment: displacement of 20 nM [^3H]amylin, co-transfected L6 myoblasts; Cheng and Prusoff with Kd […]
Text: as §4
95% confidence intervals (nM) are bracketed.

[16] = molecular target: T3, murine ramp 1/C1ins- receptor; experiment: displacement of 20 nM [^3H]amylin, L6 myoblasts co-transfected with murine ramp 1 and C1ins-
Text: as §4

rat CGRP-1 (ligand)
free fatty acid content in incubated rat soleus muscle, EC50 of the first phase [1]: 0.00025 nM
free fatty acid content in incubated rat soleus muscle, EC50 of the second phase [2]: 45 nM
lipolysis in skeletal muscle, EC50 as summed up in the description [3]: 0.00026 nM
NEFA content of soleus muscle from high fat-fed rats, EC50 [4]: 0.0007 nM
decrease in intramuscular triglyceride of soleus muscle from high fat-fed rats, EC50 [4]: 0.00025 nM
EC50, ^14C-glucose incorporation into glycogen, with insulin (23.7 nM) [5]: 0.7 nM
EC50, ^14C-glucose incorporation into glycogen, without insulin [5]: 3.1 nM
EC50, total glycogen content, without insulin [5]: 3.2 nM

rat amylin (from UniProt P12969) (ligand)
free fatty acid content in incubated rat soleus muscle, EC50 [6]: 7.8 nM
EC50, total glycogen content, without insulin [5]: 8 nM

rat amylin-(8-37)
glucose uptake in presence of amylin (10 nM) and insulin (23.7 nM) plus antagonist (soleus muscle [7]): no significant effect
antagonism of peptide-evoked cAMP production (ramp 1/C1ins− receptor): only a modest decrease in cAMP production
free fatty acid concentration in conjunction with 1 pM CGRP (soleus muscle [8]; 100 pM antagonist + 1 pM CGRP, CGRP alone 166±18): 86±20 nmol/g
free fatty acid content in conjunction with 100 nM CGRP (soleus muscle [8]; 10 μM antagonist or maximally stimulating insulin (23.7 nM) + 100 nM CGRP, CGRP alone 334±52): 34 ± 5 nmol/g
free fatty acid content in conjunction with 100 nM amylin (soleus muscle [8]; 10 μM antagonist or maximally stimulating insulin (23.7 nM) + 100 nM amylin, amylin alone 216±26): 18.5 ± 6 nmol/g
cAMP content with 100 nM CGRP plus antagonist (soleus muscle [9]): 2.9 ± 0.8 pmol/mg
cAMP content with 100 nM CGRP1 plus antagonist (soleus muscle [10]; 10-fold molar excess of antagonist): 4.3 ± 0.8 pmol/mg
cAMP content with 1 pM CGRP plus antagonist (soleus muscle [10]; 10-molar excess of antagonist, CGRP alone 8.6±0.4): 4.4±0.4 pmol/mg

salmon calcitonin
specific binding of [3H]radioligand to L6 myoblasts co-transfected with ramp 1 and C1ins− [11]: significant increases in specific binding
EC50 (soleus muscle [12]; absence of insulin): 1.7 nM
EC50 (soleus muscle [12]; human insulin 23.7 nM): 0.6 nM
EC50 (soleus muscle [13]; absence of insulin): 0.1 nM
EC50 (soleus muscle [13]; human insulin 23.7 nM): 0.9 nM

B1: ^8,37rat CGRP-1 (peptide)
peptide: VTHRLAGLLSRSGGVVKDNFVPTNVGSEAF
fold lower Kl than ^8,37amylin [14]: ~20 fold
Ki [15]: 19.5 nM
IC50 [16]: 62 nM
